The numbers were not newly measured in paper PMC7314768, which cites them from elsewhere.

The target in one series is Cys145 (UniProt position 3385, FLNGSCGSVGF).
In a further series the target is His41 (UniProt position 3281, VYCPRHVICTA).

As to “3C-like main protease (3CL Mpro, 3CLpro, nsp5) of SARS coronavirus (Severe acute respiratory syndrome coronavirus (SARS-CoV))”, the results for the pKa with Cys145 and in the series with His41 were 8.0 ± 0.3 and 6.3 ± 0.1, respectively.
